Two substances from patent publication US20240261333A1, “NOVEL TARGETS FOR ENHANCING ANTI-TUMOR IMMUNITY” (THE BROAD INSTITUTE, INC., priority 2021, published 2024) can be followed below.

One assay concerns the target FBXO6 (human) (UniProt Q9NRD1). The assay can be described thus: anti-FLAG co-IP from lysate of C-FLAG B3GNT2 cells, mass spectrometry.
The target of the next assay is SLC25A22 (human) (UniProt Q9H936). The assay is described as above.
Another assay addresses HSP90AB1 (human) (UniProt P08238). The description is as above.
In the next assay the target is IPO7 (human) (UniProt O95373). The description is as above.
The target of a further assay is RPL34 (human) (UniProt P49207). Described as above.
A further assay deals with LDHA (human) (UniProt P00338). Described as above.
The target in the next assay is UBTF (human) (UniProt P17480). Described as above.
A further assay deals with LARP4 (human) (UniProt Q71RC2). The description is as above.
The target of a further assay is ELOC (human) (UniProt Q15369). Described as above.
Another assay concerns the target HDGFL2 (human) (UniProt Q7Z4V5). Described as above.
For a further assay, the target named is RCN1 (human) (UniProt Q15293). Described as above.
The target in a further assay is STAU1 (human) (UniProt O95793). The assay is described as above.
The next assay concerns the target EEF2 (human) (UniProt P13639). The assay is described as above.
In a further assay the target is FKBP10 (human) (UniProt Q96AY3). In words: co-IP/MS, IgG control IP of N-FLAG B3GNT2 cell lysate.
Sequence of FKBP10 (human) (Q96AY3 27-582 limits assumed): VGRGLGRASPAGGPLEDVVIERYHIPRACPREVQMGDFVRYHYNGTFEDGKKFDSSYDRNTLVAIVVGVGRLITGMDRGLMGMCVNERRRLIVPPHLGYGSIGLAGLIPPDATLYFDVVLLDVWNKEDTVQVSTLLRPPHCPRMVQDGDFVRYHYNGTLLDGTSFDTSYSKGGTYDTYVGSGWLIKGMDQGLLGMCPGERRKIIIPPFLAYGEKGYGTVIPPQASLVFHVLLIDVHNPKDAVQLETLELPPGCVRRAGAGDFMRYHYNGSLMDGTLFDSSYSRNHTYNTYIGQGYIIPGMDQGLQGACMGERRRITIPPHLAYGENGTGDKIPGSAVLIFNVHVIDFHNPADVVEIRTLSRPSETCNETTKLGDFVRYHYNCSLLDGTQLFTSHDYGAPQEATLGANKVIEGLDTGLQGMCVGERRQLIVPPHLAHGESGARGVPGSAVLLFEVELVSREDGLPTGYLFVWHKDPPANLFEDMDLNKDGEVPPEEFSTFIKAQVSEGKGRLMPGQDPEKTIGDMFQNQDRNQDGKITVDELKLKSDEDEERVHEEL
A further assay addresses RPL23A (human) (UniProt P62750). The description is as above.
In the next assay the target is LRP1 (human) (UniProt Q07954). The description is as above.
For the next assay, the target named is RPL30 (human) (UniProt P62888). The description is as above.
The target of a further assay is RPL13A (human) (UniProt P40429). The description is as above.
A further assay concerns the target TGM3 (human) (UniProt Q08188). The description is as above.
The next assay concerns the target PCBP1 (human) (UniProt Q15365). The assay is described as above.
For a further assay, the target named is RCN2 (human) (UniProt Q14257). The assay is described as above.
The target in a further assay is PDIA6 (human) (UniProt Q15084). Described as above.
Another assay has as its target SQSTM1 (human) (UniProt Q13501). Described as above.
In another assay the target is ATP1A1 (human) (UniProt P05023). The assay is described as above.
The target in a further assay is PRDX2 (human) (UniProt P32119). The description is as above.
Sequence of PRDX2 (human) (P32119 2-198 limits assumed): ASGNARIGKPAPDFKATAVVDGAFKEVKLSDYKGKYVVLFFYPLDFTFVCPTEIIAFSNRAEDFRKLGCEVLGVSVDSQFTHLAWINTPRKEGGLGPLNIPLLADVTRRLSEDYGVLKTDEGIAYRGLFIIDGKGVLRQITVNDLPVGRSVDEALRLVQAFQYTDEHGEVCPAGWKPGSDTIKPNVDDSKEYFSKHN
In another assay the target is IPO4 (human) (UniProt Q8TEX9). The assay is described as above.
The target of another assay is CKAP4 (human) (UniProt Q07065). The description is as above.
Sequence of CKAP4 (human) (Q07065 whole entry): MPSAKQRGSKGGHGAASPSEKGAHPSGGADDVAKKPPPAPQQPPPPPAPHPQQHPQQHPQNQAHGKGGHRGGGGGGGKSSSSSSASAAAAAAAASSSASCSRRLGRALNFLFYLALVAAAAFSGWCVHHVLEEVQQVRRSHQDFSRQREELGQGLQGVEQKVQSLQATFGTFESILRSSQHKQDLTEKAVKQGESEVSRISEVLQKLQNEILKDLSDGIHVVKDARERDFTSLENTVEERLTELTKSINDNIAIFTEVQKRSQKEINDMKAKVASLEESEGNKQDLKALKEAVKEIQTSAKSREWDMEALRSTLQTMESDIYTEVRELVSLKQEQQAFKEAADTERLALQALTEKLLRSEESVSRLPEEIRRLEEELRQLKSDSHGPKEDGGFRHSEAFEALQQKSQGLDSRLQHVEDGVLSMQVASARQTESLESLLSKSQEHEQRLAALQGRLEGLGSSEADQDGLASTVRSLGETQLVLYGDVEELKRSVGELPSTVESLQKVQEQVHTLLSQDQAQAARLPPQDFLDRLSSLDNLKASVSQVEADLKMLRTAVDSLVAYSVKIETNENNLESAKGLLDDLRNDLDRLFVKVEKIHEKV
For the next assay, the target named is CASP14 (human) (UniProt P31944). The assay is described as above.
The target of another assay is FAM3C (human) (UniProt Q92520). Described as above.
A further assay concerns the target GCN1 (human) (UniProt Q92616). The description is as above.
The target in another assay is ERLIN1 (human) (UniProt O75477). The description is as above.
The target in the next assay is RPS3A (human) (UniProt P61247). The description is as above.
In another assay the target is HSD17B12 (human) (UniProt Q53GQ0). The assay is described as above.
Sequence of HSD17B12 (human) (Q53GQ0 whole entry): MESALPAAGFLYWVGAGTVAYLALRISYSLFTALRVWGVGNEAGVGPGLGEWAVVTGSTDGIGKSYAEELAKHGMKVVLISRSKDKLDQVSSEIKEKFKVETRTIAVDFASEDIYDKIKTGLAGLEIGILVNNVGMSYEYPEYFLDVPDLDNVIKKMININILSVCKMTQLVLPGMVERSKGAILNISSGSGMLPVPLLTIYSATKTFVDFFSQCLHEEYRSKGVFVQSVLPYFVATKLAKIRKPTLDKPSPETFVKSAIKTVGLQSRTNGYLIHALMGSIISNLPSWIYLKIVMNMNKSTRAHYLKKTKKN
For a further assay, the target named is RPS15 (human) (UniProt P62841). Described as above.
Another assay addresses RPL12 (human) (UniProt P30050). Described as above.
In a further assay the target is PRDX1 (human) (UniProt Q06830). The description is as above.
The target in a further assay is CALU (human) (UniProt O43852). Described as above.
Sequence of CALU (human) (O43852 20-315 limits assumed): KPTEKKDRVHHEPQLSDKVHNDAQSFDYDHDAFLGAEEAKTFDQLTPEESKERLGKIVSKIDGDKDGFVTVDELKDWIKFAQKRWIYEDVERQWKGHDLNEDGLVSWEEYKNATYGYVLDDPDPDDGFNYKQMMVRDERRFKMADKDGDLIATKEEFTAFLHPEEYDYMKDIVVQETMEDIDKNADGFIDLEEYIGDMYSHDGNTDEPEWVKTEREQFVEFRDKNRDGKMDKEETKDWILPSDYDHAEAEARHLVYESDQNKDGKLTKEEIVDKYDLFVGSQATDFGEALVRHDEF
The target in another assay is SLC25A4 (human) (UniProt P12235). Described as above.

Sequence of GCN1 (human) (Q92616 2-2671 limits assumed): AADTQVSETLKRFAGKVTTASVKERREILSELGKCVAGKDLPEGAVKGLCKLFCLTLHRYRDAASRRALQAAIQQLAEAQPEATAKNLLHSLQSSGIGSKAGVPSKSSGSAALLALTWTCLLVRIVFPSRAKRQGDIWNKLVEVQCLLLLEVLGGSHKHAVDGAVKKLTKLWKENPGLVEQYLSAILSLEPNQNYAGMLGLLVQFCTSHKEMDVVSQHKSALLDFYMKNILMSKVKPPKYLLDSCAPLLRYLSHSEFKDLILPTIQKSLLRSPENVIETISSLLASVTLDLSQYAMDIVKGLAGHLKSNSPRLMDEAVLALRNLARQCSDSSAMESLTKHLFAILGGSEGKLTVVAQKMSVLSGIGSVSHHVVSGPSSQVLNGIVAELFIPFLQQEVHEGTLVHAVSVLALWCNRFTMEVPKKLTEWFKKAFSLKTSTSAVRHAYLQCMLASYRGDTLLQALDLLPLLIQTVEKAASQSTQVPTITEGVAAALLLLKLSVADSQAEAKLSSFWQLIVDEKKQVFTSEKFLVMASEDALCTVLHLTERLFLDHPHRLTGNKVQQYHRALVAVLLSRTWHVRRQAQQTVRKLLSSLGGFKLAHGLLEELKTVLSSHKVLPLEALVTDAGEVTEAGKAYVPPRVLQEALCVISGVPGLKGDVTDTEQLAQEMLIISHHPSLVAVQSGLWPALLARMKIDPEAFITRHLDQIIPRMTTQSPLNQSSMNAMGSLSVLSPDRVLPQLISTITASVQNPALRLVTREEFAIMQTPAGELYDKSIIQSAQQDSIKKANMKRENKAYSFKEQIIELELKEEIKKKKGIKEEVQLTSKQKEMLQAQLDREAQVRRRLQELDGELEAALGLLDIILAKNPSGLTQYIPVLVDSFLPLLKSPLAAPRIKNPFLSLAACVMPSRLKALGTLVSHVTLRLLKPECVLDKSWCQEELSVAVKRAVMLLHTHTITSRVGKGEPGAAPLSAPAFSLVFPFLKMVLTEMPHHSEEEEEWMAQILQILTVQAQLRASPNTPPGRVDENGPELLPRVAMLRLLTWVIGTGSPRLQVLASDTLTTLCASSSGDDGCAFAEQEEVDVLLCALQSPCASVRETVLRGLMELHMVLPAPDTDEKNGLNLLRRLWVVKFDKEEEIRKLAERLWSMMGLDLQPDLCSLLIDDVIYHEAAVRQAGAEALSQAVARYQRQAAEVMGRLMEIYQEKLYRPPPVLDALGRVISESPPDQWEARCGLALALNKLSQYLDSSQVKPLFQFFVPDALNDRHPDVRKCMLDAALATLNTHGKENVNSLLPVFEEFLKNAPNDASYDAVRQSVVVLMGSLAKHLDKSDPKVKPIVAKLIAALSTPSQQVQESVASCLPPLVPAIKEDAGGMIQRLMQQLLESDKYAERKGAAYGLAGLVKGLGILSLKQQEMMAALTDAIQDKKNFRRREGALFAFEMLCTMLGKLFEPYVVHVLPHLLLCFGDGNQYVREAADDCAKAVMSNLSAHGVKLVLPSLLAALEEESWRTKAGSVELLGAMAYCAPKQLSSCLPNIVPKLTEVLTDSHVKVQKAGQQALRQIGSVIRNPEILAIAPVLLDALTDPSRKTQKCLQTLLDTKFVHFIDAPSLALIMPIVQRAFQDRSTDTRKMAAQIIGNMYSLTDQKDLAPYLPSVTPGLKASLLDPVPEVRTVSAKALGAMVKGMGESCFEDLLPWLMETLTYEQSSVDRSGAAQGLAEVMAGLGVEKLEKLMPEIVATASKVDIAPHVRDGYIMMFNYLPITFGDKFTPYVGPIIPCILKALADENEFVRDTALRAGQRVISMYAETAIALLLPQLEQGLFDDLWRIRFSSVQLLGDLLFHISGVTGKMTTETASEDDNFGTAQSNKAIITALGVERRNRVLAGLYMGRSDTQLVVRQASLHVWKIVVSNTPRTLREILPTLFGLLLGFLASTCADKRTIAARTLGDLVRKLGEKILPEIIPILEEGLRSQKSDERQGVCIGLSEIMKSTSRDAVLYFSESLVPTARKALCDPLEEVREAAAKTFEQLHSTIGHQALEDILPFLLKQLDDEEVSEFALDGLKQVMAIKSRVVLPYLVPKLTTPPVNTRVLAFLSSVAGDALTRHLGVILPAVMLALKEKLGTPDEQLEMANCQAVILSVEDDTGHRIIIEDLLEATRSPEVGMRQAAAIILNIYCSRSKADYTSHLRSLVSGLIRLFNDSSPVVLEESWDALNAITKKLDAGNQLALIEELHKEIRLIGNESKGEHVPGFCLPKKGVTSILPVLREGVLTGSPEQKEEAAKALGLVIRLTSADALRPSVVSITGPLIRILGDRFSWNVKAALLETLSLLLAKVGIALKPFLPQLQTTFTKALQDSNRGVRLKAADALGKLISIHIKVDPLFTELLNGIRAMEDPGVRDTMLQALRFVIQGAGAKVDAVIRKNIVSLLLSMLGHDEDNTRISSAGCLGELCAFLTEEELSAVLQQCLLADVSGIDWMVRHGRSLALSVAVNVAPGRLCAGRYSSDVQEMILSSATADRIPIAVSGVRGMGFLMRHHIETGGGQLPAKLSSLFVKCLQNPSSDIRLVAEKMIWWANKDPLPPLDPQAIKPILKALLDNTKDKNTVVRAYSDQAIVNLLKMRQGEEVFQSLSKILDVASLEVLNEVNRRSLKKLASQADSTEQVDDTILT
Sequence of PCBP1 (human) (Q15365 whole entry): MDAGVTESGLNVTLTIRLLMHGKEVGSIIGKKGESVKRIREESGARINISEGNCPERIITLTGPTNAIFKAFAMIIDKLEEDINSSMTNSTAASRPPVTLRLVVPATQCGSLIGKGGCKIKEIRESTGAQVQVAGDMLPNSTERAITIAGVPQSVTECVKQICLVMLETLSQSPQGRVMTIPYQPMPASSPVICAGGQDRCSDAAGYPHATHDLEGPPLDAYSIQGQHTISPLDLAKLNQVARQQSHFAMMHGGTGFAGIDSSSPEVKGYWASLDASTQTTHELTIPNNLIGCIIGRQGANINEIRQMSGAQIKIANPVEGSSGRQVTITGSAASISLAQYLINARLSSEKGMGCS

With “C-terminal FLAG tagged B3GNT2 (from UniProt Q9NY97 1-397) (enzyme)”, the co-IP mass spectrometry count was found to be 5 in the assay with FBXO6 (human); 2 with SLC25A22 (human); 11 with HSP90AB1 (human); 9 with IPO7 (human); 2 with RPL34 (human); 4 with LDHA (human). Besides, the co-IP mass spectrometry count was found to be 2 in the assay with UBTF (human); 2 with LARP4 (human); 2 with ELOC (human); 2 with HDGFL2 (human); 9 with RCN1 (human); 6 with STAU1 (human). The substance also showed a co-IP mass spectrometry count in the assay with EEF2 (human) of 5.
For the substance “IgG control (Millipore Sigma 12-371) (antibody)”, the co-IP mass spectrometry count turned out to be 0 with FKBP10 (human); 3 with RPL23A (human); 0 with LRP1 (human); 6 with RPL30 (human); 0 with RPL13A (human); 2 with TGM3 (human). For the same substance, the co-IP mass spectrometry count came out at 0 in the assay with PCBP1 (human); 0 in the assay with RCN2 (human); 0 with PDIA6 (human); 0 with SQSTM1 (human); 0 with ATP1A1 (human); 5 with PRDX2 (human). For the same substance, the co-IP mass spectrometry count with IPO4 (human) came out at 0; with CKAP4 (human) it was 0; with CASP14 (human), 3; with FAM3C (human), 0; with GCN1 (human) it was 0; with ERLIN1 (human), 0. Also, the co-IP mass spectrometry count came to 9 with RPS3A (human); 0 with HSD17B12 (human); 5 with RPS15 (human); 4 with RPL12 (human); 5 with PRDX1 (human); 0 with CALU (human). The substance further yielded a co-IP mass spectrometry count in the assay with SLC25A4 (human) of 0.
